Target: extracellular Cu/Zn superoxide dismutase from Onchocerca volvulus (OvEC-SOD) (Onchocerca volvulus)
Test: SAXS; monodisperse solutions after affinity-tag cleavage, four concentrations 0.5-7.5 mg/ml; molecular mass from forward scattering with bovine serum albumin as reference; compared with the crystallographic dimer (CRYSOL, SREFLEX, GASBOR)

extracellular Cu/Zn superoxide dismutase from Onchocerca volvulus (OvEC-SOD) (enzyme)
stoichiometry N: 2

Reference: article PMC9158661
